The target in experiment [1] is T1, rat PAR2 (Rattus norvegicus, UniProt Q63645).
T1 construct: expressed in transfected cells; host or cells: KNRK (Kirsten virus-transformed normal rat kidney) cells
T1 sequence (Q63645 26-397): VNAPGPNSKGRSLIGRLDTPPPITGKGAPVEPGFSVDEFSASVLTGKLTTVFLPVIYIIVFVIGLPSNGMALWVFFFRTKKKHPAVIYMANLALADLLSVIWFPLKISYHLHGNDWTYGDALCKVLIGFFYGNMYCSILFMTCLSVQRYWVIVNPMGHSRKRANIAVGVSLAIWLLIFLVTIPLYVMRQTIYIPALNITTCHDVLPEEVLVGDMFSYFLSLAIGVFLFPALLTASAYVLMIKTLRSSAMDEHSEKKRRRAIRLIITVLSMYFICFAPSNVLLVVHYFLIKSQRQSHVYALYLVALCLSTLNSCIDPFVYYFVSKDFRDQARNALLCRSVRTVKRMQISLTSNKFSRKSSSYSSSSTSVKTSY
Kind of experiment: Calcium signaling assay, PAR2 activation/disarming in KNRK cells. The experiment is classed as cell-based. An excerpt:
(§1) The Kirsten virus-transformed normal rat kidney (KNRK) epithelial cell line expressing wild-type rat PAR2 (KNRKrPAR2), validated previously for studies of receptor activation was used to evaluate the PAR2-regulating properties of the ISP1 by the methods described previously. Human embryonic kidney cells (HEK293) that express the SV40 T-antigen were kindly provided by Dr. Jonathan Lytton, University of Calgary, Faculty of Medicine, Calgary (Alberta) Canada. The human HEK293 cells, that constitutively express both PAR1 and PAR2, were grown under similar conditions as described for the KNRK cells, but in the absence of geneticin, as outlined for the PAR-mediated calcium signaling procedure described previously. All cells were sub-cultured by dissociation in an isotonic EDTA/saline solution, pH 7.4, without the use of trypsin, to avoid cleavage of PARs.
(§2) Cell lines (grown to about 85% confluence and disaggregated with calcium-free isotonic phosphate-buffered saline containing 0.2 mM EDTA) and rat platelets (harvested from platelet-rich anti-coagulated plasma) were prepared and used as previously described. Cells were incubated for 25 min at room temperature with Fluo-3 acetoxymethyl ester (final concentration, 22 µM) along with 0.4 mM sulfinpyrazone. Cells were washed twice by centrifugation (using the following buffer without calcium) and resuspended in the calcium signaling buffer: 150 mM NaCl, 3 mM KCl, 1.5 mM CaCl2, 20 mM HEPES, 10 mM dextrose, and 0.25 mM sulfinpyrazone, pH 7.4.
(§3) Fluorescence was measured at 24 °C with an excitation wavelength of 480 nm and an emission recorded at 530 nm using an Aminco Bowman Series 2 Luminescence spectrometer (ThermoSpectronic Model FA354, Spectronic Unicam, Rochester, NY). The fluorescence signals caused by the addition of test agonists (trypsin, PAR-activating peptide or rISP1, added to 2 ml of a cell suspension of ~3 x 10^5 cells/ml) were compared with the fluorescence peak height yielded by replicate cell suspensions treated with 2 µM ionophore A23187. This concentration of A23187 was at the plateau of its concentration-response curve for a fluorescence response in Fluo-3-loaded cultured cells. Under these conditions, the calculated values for intracellular calcium in the HEK and KNRK cells were [picture] […]
(§4) Previous work has shown that the fluorescence response of a cell preparation, as a percentage relative to the signal generated by 2 µM A23187, is a valid reference standard for the comparative determination of calcium signals for all PAR agonists. The cellular calcium response was therefore recorded as a percentage of the response generated by 2 µM ionophore A23187 [6]. […]
(§5) Receptor activation was monitored as an enzyme-stimulated increase in fluorescence emission (E530). […]

Experiment [2] concerns the target T2, human PAR1 (Homo sapiens, UniProt P25116).
T2 construct: The human HEK293 cells, that constitutively express both PAR1 and PAR2; endogenous in cells; host or cells: HEK293 (expressing SV40 T-antigen)
T2 sequence (P25116 22-425): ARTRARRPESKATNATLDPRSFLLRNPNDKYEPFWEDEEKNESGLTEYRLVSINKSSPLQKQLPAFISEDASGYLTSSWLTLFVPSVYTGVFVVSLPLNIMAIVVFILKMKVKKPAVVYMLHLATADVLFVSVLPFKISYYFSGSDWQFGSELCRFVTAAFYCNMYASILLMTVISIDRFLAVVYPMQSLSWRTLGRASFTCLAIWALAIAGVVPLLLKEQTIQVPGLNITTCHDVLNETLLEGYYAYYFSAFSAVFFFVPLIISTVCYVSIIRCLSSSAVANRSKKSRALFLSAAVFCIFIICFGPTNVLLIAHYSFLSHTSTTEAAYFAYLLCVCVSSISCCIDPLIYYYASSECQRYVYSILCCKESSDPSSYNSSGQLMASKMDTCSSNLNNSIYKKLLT
The experiment in a line: Calcium signaling assay, PAR1 activation/disarming in HEK cells. It is filed as cell-based.
Excerpt: as §1, §2, §3, §4, §5

B1: ISP1: recombinant implantation serine proteinase 1 expressed in Pichia pastoris, also known as Mouse Prss28 (protein, UniProt Q924N9 27-274, looked up)
Serine protease 28: KPVGIVGGQRTPPGKWPWQVSLRMYSYEVNSWVHICGGSIIHPQWILTAAHCIQSQDADPAVYRVQVGEVYLYKEQELLNISRIIIHPDYNDVSKRFDLALMQLTALLVTSTNVSPVSLPKDSSTFDSTDQCWLVGWGNLLQRVPLQPPYQLHEVKIPIQDNKSCKRAYRKKSSDEHKAVAIFDDMLCAGTSGRGPCFGDSGGPLVCWKSNKWIQVGVVSKGIDCSNNLPSIFSRVQSSLAWIHQHIQ
modifications: recombinant, Pichia pastoris-expressed
notes: recombinant implantation serine proteinase 1 expressed in Pichia pastoris, also known as Mouse Prss28
Turning to B1, the “Cellular response to PAR2-activating peptide after ISP1 pre-treatment” value in experiment [1] (SLIGRL-NH2 (10 µM), concentration-dependent) is “diminished”. For the same molecule, the “Activation of a calcium signal via PAR2” value in experiment [1] (enzyme alone) is recorded as “did not activate a calcium signal”. In addition, the “residual PAR2 activity triggered by trypsin” value in experiment [1] (pre-treatment with 5 Units/ml ISP1, then trypsin (1.0 units/ml)) is listed as ~80%. The “residual PAR2 activity (% of control)” value in experiment [1] (pre-treatment with 20 units ISP1/ml, then trypsin (1.0 units/ml)) is given as ~40%. Further, in experiment [2] (TFLLR-NH2 (5 µM), concentration-dependent), the “Cellular response to PAR1-activating peptide after ISP1 pre-treatment” value was “diminished”. In addition, the “Activation of a calcium signal via PAR1” value in experiment [2] (enzyme alone) was “did not activate a calcium signal”. The “residual PAR1 activity” value in experiment [2] (pre-treatment with 5 Units/ml ISP1, then thrombin (0.5 units/ml)) is recorded as 20%; in experiment [2] (pre-treatment with 20 units ISP1/ml, then thrombin (0.5 units/ml)) it was “eliminate PAR1 activity completely”.

Values taken from paper PMC3223204, “Implantation Serine Proteinase 1 Exhibits Mixed Substrate Specificity that Silences Signaling via Proteinase-Activated Receptors” (PLoS ONE, 2011).
